Results published in article PMC3017539, “Crystal Structure of Escherichia coli CusC, the Outer Membrane Component of a Heavy Metal Efflux Pump” (PLoS ONE, 2011).

Target: the molecule itself
Test: SEC; gel filtration (Superdex-200) in 10 mM Na-acetate/50 mM NaCl/10% glycerol/0.05% DDM pH 5; oligomer judged from the elution position

B1: CusC, the outer membrane component of the Cus heavy metal efflux pump (natural protein, E. coli, UniProt P77211 18-457, looked up)
chain: CSLAPDYQRPAMPVPQQFSLSQNGLVNAADNYQNAGWRTFFVDNQVKTLISEALVNNRDLRMATLKVQEARAQYRLTDADRYPQLNGEGSGSWSGNLKGNTATTREFSTGLNASFDLDFFGRLKNMSEAERQNYLATEEAQRAVHILLVSNVAQSYFNQQLAYAQLQIAEETLRNYQQSYAFVEKQLLTGSSNVLALEQARGVIESTRSDIAKRQGELAQANNALQLLLGSYGKLPQAQTVNSDSLQSVKLPAGLSSQILLQRPDIMEAEHALMAANANIGAARAAFFPSISLTSGISTASSDLSSLFNASSGMWNFIPKIEIPIFNAGRNQANLDIAEIRQQQSVVNYEQKIQNAFKEVADALALRQSLNDQISAQQRYLASLQITLQRARALYQHGAVSYLEVLDAERSLFATRQTLLDLNYARQVNEISLYTALGGG
modifications: three partial acyl chains attached to Cys1 (most likely triacylated at the N-terminal cysteine with N-acyl and S-diacylglycerol functions)
notes: CusC of Escherichia coli, gene for the full-length protein amplified from DH5alpha cells; residues 21-31 disordered in the crystal. numbers count on: the mature protein; Hexa-histidine tag introduced after the C-terminal residue; no cleavage is described; also called outer membrane factor (OMF) protein CusC; source: E. coli C43 (DE3), over-expressed, purified from membranes (nickel column, …)
  stoichiometry N: 3
